From patent publication US20150125397A1, “DUAL SPECIFIC BINDING PROTEINS DIRECTED AGAINST IMMUNE CELL RECEPTORS AND AUTOANTIGENS” (ABBVIE INC., priority 2013, published 2015)
“Also recorded” adds a separate entry of the source.

Legend:
Assay type in all cases: cell-based, mouse
Primary murine B cells = experiment: CFSE dilution / Sytox Blue FACS of primary murine B cells; conditions: 72 hours, FIG. 3
Procedure: Primary murine B cells were purified by positive selection as described above. For cultures >48 hours old, proliferation was quantified by carboxyfluorescein diacetate, succinimidyl ester (CFSE) dilution and cell death by TO-PRO-3 binding. To label the cells with CFSE, the cells were first washed 2 times with PBS. Next, the stock of CFSE was diluted to 10 μM in PBS and the cells were brought to 1×10^7 cells/ml. The cells were mixed at a 1:1 ratio with 10 μM CFSE and mixed gently for 2 minutes. The CFSE labeling reaction was stopped by adding heat inactivated fetal calf serum equal in volume to the starting volume for the cell suspension. […] Proliferation was measured by fluorophore dilution at 60-72 hours by flow cytometry. […]
Primary murine B cells were labeled and prepared as in Example 2.7 and stimulated with either media alone, […] of TLR9 ligand CpG oligodeoxynucleotide (ODN) 1826, […] of the mouse anti-chromatin autoantibody PL2-3 or […] DVD3759 in the presence or absence of […] of the B cell survival factor BLyS. After 72 hours, cells were stained with 1 μM of the cell permeable DNA stain Sytox Blue and analyzed by fluorescence activated cell sorting (FACS). Cell division was determined by dilution of CFSE and dead cells were identified by staining with Sytox Blue.

[1] = test system: Dnase2−/− Ifnar1−/− Unc93b1−/− TKO B cells; experiment: 3H-thymidine incorporation of B220-purified B cells, TKO; conditions: 24 hours, FIG. 10C
Source text: Mice: RF and Tlr-9^−/− mice have been described previously (Uccellini et al. (2008) J. Immunol. 181:5875-5884), The DNase II-deficient mice on a C57BL/6 background were kindly provided by Dr. S, Nagata and obtained from the RIKEN Institute. […] and Unc93B1-deficient mice were obtained from Jackson Lab. DnaseII^−/− Ifnar1^−/− (Het), DnaseII^−/− Ifnar1−/− (DKO), and DnaseII^−/− Unc93b1^−/− (TKO), were bred at UMMS. All mice were maintained at the Department of Animal Medicine of the University of Massachusetts Medical School in accordance with the regulations of the American Association for the Accreditation of Laboratory Animal Care.
Proliferation of B220+ B cells: B cells were purified by magnetic bead separation using CD45R/B220-conjugated magnetic particles (BD Biosciences, San Jose, Calif., USA) and stimulated as described previously (Nundel et al. (2013) J. Leukoc. Biol. 94:865-875) with 15 μg/ml goat anti-mouse IgM F(ab′)2 (Jackson ImmunoResearch), ODN1826 (CpG; Idera Pharmaceuticals), anti-DNA-mAb (Leadbetter et al. (2002) Nature 416:603-607), or DVD-Ig proteins (1 μg/ml). B cell proliferation was assessed by ^3H-thymidine (Amersham Biosciences, Piscataway, N.J., USA) incorporation at 24 hours post-stimulation. For long-term proliferation assays, B220-purified B cells were labeled with a final concentration of 2.5 μM CFSE (Life Technologies) in PBS for 2 minutes. […]

[2] = test system: RF Tlr9−/− or BALB/c Tlr9−/− B cells; experiment: Proliferation of B220+ B cells, Tlr9-/-; conditions: 3H-thymidine 24 hours, CFSE 72 hours; FIG. 9
Procedure: (§1) Proliferation of B220+ B cells: B cells were purified by magnetic bead separation using CD45R/B220-conjugated magnetic particles (BD Biosciences, San Jose, Calif., USA) and stimulated as described previously (Nundel et al. (2013) J. Leukoc. Biol. 94:865-875) with 15 μg/ml goat anti-mouse IgM F(ab′)2 (Jackson ImmunoResearch), ODN1826 (CpG; Idera Pharmaceuticals), anti-DNA-mAb (Leadbetter et al. (2002) Nature 416:603-607), or DVD-Ig proteins (1 μg/ml). B cell proliferation was assessed by ^3H-thymidine (Amersham Biosciences, Piscataway, N.J., USA) incorporation at 24 hours post-stimulation. For long-term proliferation assays, B220-purified B cells were labeled with a final concentration of 2.5 μM CFSE (Life Technologies) in PBS for 2 minutes. The cells were then washed and cultured for 72 hours in the presence of BLyS (Human Genome Sciences).
(§2) FACS for B cells: Multicolor flow cytometry analysis was carried out using a BD LSR II with DIVA software (BD Biosciences). Analysis was conducted with FlowJo software (Tree Star, Ashland, Oreg., USA) Immature and mature B cell ratios were determined using Pacific Blue-B220 and APC-AA4.1 (eBioscience). Dead cells and debris were excluded by forward- and side-scatter. Proliferation was assessed by CFSE dilution. Cell death was ascertained using the DNA stain TO-PRO-3 (Life Technologies) at a final concentration of 20 nM.

BALB/c B cells = experiment: Proliferation of B220+ B cells, non-Tg BALB/c; conditions: 3H-thymidine 24 hours, CFSE 72 hours; FIG. 8D, 9
Procedure: as §1, §2

Molecule	effect of addition of BLyS on cell death (Primary murine B cells; 0.05 mg/ml BLyS)	cell division (CFSE dilution) and cell death (Sytox Blue) (Primary murine B cells; absence of BLyS)	response of TKO B cells [1]	proliferation of Tlr9−/− B cells [2]	activation / proliferation of non-Tg BALB/c B cells (BALB/c B cells)
DVD3759: DVD-Ig: VD1 mIgM (B7.6), SL linker, VD2 DNA(PA4); heavy SEQ ID NO 64, light 65 (antibody) heavy: QVQLKESGPGLVKPSLTLSLTCTVSGFSLNGYGVIWVRQPPGKGLEWMGVIWGNGNTNYNSTLKSRLSISRDTSKSQVFLKMNNLQTEDTAMYFCARSENYYSSPGYFAYWGQGTLVTVSSASTKGPEVQLVESGGGLVKPGGSLKLSCVASGFTFSTYAMSWVRQTPTKRLEWVATISRGGVSTYYPDTVKGRFTISRDNAKNTLYLQMSSLRSEDTAMYYCARPPTIVTTWFAYWGQGTLVTVSS light: NTVMTQSPTSMFISVGDRVTMNCKASQNVGSDVDWYQQKTGQSPKLLISGTSNRYTGVPDRFTGSGSGTDFTLTISNMQAEDLAVYYCLQYNYNPTFGAGTKLELKRTVAAPSVFIFPPDVVMTQTPLSLPVSLGDQASISCRSSQSLVHSNGNTYLHWYLQKPGQSPKLLIYKVSNRFSGVPDRFSGSGSGTDFTLKISRVEAEDLGAYFCSQSTHVPYTFGGPTRLEIKR	could be rescued	induced several rounds of division followed by post-proliferative cell death	–	–	–
DVD3754: DVD-Ig: VD1 DNA(PA4), SL linker, VD2 mIgM (B7.6); heavy SEQ ID NO 54, light 55 (antibody) heavy: EVQLVESGGGLVKPGGSLKLSCVASGFTFSTYAMSWVRQTPTKRLEWVATISRGGVSTYYPDTVKGRFTISRDNAKNTLYLQMSSLRSEDTAMYYCARPPTIVTTWFAYWGQGTLVTVSSASTKGPQVQLKESGPGLVKPSLTLSLTCTVSGFSLNGYGVIWVRQPPGKGLEWMGVIWGNGNTNYNSTLKSRLSISRDTSKSQVFLKMNNLQTEDTAMYFCARSENYYSSPGYFAYWGQGTLVTVSS light: DVVMTQTPLSLPVSLGDQASISCRSSQSLVHSNGNTYLHWYLQKPGQSPKLLIYKVSNRFSGVPDRFSGSGSGTDFTLKISRVEAEDLGAYFCSQSTHVPYTFGGPTRLEIKRTVAAPSVFIFPPNTVMTQSPTSMFISVGDRVTMNCKASQNVGSDVDWYQQKTGQSPKLLISGTSNRYTGVPDRFTGSGSGTDFTLTISNMQAEDLAVYYCLQYNYNPTFGAGTKLELKR	–	–	failed to respond	not RF Tlr9^−/− or BALB/c Tlr9^−/− B cells	stimulated BALB/c B cells more strongly than the rest; also recorded: induced both RF and non-Tg BALB/c B cells
